The source of these data is article PMC3616719.

What all share (experiment): co-sedimentation
The target of test [1] is Bombyx mori ribosomal protein P0 (full-length) (Bombyx mori).
Test [2] deals with P0mutII (P0 with I241Q/L248Q in helix II) (Bombyx mori).
Test [3] addresses P0mutI (P0 with F215Q/V222Q in helix I) (Bombyx mori).

For P1–[32P]P2 heterodimer (complex), the values for the stoichiometry N (copies of P2 per 50S particle) in test [1], in test [2] and in test [3] were 2.22, 1.14 and 1.04, respectively.
